Results reported in US20100297703A1.

Assays:
Test in all cases: cell-based or functional assay
[1] = target: 6His-C-CwlO protein (Bacillus subtilis) (UniProt P40767)
[2] = target: 6His-C-YddH protein (Bacillus subtilis) (UniProt P96645)
[3] = target: His-tag-fused C-terminal active domain of CwlE (His-CwlECTD) (Bacillus subtilis) (UniProt O07532)
[4] = target: h-ACwlS protein (Bacillus subtilis) (UniProt O31852)

6His-C-YddH protein (Bacillus subtilis), sequence (P96645 206-329): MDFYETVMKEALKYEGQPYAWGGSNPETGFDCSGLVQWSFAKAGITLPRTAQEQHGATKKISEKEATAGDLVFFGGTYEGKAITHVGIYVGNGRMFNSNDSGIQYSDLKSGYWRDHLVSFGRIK
His-tag-fused C-terminal active domain of CwlE (His-CwlECTD) (Bacillus subtilis), sequence (O07532 371-488 limits assumed): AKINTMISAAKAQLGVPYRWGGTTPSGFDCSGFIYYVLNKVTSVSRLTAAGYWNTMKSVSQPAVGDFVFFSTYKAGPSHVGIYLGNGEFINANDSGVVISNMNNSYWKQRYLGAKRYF
6His-C-CwlO protein (Bacillus subtilis), sequence (P40767 343-473): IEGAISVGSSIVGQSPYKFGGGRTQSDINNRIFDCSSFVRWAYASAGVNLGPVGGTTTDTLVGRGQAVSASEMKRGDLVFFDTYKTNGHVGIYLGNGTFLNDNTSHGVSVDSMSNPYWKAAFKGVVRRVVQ

His-YoeB (from UniProt O34841 24-181)
100: cell wall lysing activity (decrease in turbidity, OD540), enzyme:His-YoeB 1:2 by mole (% of activity inhibited) [1] | cell wall lysing activity (decrease in turbidity, OD540), enzyme:His-YoeB 1:2 by mole (% of activity inhibited) [2] | cell wall lysing activity (decrease in turbidity, OD540), His-CwlECTD:His-YoeB 1:2 by mole (% of activity inhibited) [3] | cell wall lysing activity (decrease in turbidity, OD540), enzyme:His-YoeB 1:2 by mole (% of activity inhibited) [4]
